Experimental data published in article PMC7437470.

Experiments:
[1] = target: Porcine Kallikrein (porcine); assay: enzyme inhibition kinetics (Morrison equation); serial dilution of the serpin, pre-incubated with the protease before the fluorogenic substrate; kallikrein 15 nM with Gly-Pro-Arg-NHMec 9.1 uM, chymotrypsin 2 ug/mL with Ala-Ala-Pro-Phe-NHMec 42.9 uM; 37°C; sodium acetate buffer pH 7.0; Ki from apparent Ki; triplicate
[2] = target: Porcine Kallikrein (porcine)
[3] = target: Bovine α-Chymotrypsin (bovine); assay: enzyme inhibition kinetics (Morrison equation); serial dilution of the serpin, pre-incubated with the protease before the fluorogenic substrate; kallikrein 15 nM with Gly-Pro-Arg-NHMec 9.1 uM, chymotrypsin 2 ug/mL with Ala-Ala-Pro-Phe-NHMec 42.9 uM; 37°C; sodium acetate buffer pH 7.0; Ki from apparent Ki; triplicate
Human Chymase (human) = Human Chymase (human) (UniProt P23946)
[4] = target: Human Cathepsin G (human) (UniProt P08311)
[5] = target: Human Neutrophil elastase (human) (UniProt P08246)
Sequence of UniProt P08246 (P08246 30-267): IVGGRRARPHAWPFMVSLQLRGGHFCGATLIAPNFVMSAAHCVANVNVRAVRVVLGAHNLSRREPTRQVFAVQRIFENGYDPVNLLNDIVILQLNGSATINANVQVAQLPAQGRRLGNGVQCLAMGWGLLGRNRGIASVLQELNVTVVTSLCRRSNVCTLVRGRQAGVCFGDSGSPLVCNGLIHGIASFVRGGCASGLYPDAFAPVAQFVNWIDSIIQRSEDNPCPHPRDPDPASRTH

Sequence of Porcine Kallikrein (porcine) (P00752 other isoform, or with tags, fused parts or gaps): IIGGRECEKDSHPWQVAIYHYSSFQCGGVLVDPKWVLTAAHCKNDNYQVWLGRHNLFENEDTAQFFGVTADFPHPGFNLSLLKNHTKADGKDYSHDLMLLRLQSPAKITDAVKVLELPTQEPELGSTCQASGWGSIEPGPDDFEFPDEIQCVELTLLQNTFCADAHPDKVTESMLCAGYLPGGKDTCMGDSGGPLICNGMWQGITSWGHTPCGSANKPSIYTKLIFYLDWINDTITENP
Sequence of UniProt P23946 (P23946 22-247): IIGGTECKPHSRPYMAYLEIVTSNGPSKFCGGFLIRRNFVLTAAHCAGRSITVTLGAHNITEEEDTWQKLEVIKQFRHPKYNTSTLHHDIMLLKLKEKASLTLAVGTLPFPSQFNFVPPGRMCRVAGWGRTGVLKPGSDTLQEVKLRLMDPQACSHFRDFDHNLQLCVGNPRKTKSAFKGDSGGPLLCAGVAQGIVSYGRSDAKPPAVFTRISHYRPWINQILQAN
Sequence of UniProt P08311 (P08311 21-244): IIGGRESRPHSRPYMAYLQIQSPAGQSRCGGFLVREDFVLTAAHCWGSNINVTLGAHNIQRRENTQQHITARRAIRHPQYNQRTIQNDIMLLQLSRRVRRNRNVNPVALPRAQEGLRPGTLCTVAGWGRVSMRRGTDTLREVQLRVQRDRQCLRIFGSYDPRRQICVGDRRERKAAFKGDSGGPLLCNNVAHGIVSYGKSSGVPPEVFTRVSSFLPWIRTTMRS

Row | Substance | Ki [1] | inhibition of kallikrein (150 nM) activity on a fluorogenic substrate, rFhSrp1 at 10 and 500 nM (48% at 10 nM) [2] | Ki [3] | inhibition of chymase (0.6 uM) activity on a fluorogenic substrate, rFhSrp2 at 10 and 500 nM (only slightly changed at 10 nM) (Human Chymase (human)) | inhibition of cathepsin G (100 nM) activity on a fluorogenic substrate, rFhSrp2 at 10 and 500 nM (only slightly changed at 10 nM) [4] | inhibition of neutrophil elastase (50 nM) activity on a fluorogenic substrate, rFhSrp2 at 10 and 500 nM (only slightly changed at 10 nM) [5]
1 | recombinant Fasciola hepatica serpin 1 (natural protein) | 40 nM | 96% |  |  |  | 
2 | recombinant Fasciola hepatica serpin 2 (natural protein) |  |  | 0.07 nM | 100% | 97.5% | 99.9%
